What all share (assay): Determination of kinetic constants with APTS-labelled acceptors
Holding throughout (type): biochemical, Neisseria meningitidis

In data set [1] the test system is CC(=O)N[C@H]1[C@H](O[C@H]2[C@@H](O)[C@@H](CO)O[C@@H](O[C@@H]([C@H](O)[C@@H](O)CNc3cc(S(=O)(=O)O)c4ccc5c(S(=O)(=O)O)cc(S(=O)(=O)O)c6ccc3c4c65)[C@H](O)CO)[C@@H]2O)O[C@H](CO)[C@@H](O[C@@H]2O[C@H](CO)[C@H](O)[C@H](O)[C@H]2O)[C@@H]1O. The conditions noted are these: other: apparent; APTS-labelled acceptor, CMP-Neu5Ac 200 μM, room temperature. As to the method: (§1) Measurement of Sialyltransferase Activity and Survey of Oligosaccharide Acceptors--FCHASE-labelled oligosaccharides were prepared as described above, while the APTS-labelled oligosaccharides were prepared by reductive amination of reducing saccharides according to the method described by Guttman et at. (Anal. Biochem233:234 (1996)) The Gal-β-APTS acceptor was derived from labelling of lactose; the Gal-α-APTS acceptor was derived from labelling of melibiose; the N-acetyllactosamine (LacNAc) acceptor was synthesized by APTS labelling of chitobiose, followed by enzymatic modification with bovine β-Galactosyl transferase to produce the LacNAc moiety-, the Gal-α-1.4-Gal-β acceptor was enzymatically synthesized from β-Gal-APTS with the α-1,4-galactosyltransferase from N. meningitidis. All of the reductive amination products were purified by gel permeation chromatography on Toyopearl HW4OF (Sigma-Aldrich), 1.5 cm×15 cm column, using water as the eluant. It should be mentioned that all of these molecules have the terminal reducing sugar ring opened in the process of labelling. APTS-saccharides were quantitated by measuring the A455, and using an extinction coefficient of 17160 M^-1 cm^-1 . The TMR-labelled oligosaccharides were prepared as described by Zhao et al. (1994) Glycobiology 4:239-242. For the TMR labelled acceptors we used an extinction coefficient of 80,000 M^-1 cm^-1 for quantitation. The sialyltransferase activity was routinely measured using 0.5 mM FCHASE-N-acetyllactosamine as the acceptor and the assay conditions as described above. For measurement of Km, and kcat values, assays were performed with the APTS labelled saccharides at room temperature. Assays were monitored so that for all acceptor concentrations, no more than 10% conversion to product occurred. The ranges of acceptor and donor concentrations were determined empirically, then a range spanning 0.2Km, up to 5Km, was used to obtain the values. Data were examined using the Grafit™3.0 software package (Erithacus Software, London, UK).
(§2) The reaction mixtures from the FCHASE- and APTS-labelled acceptors were analyzed by capillary electrophoresis performed with a Beckman instruments (Fullerton, Calif.) P/ACE 5510 equipped with a 3 mW Argon-ion laser induced fluorescence detector, λ excitation=488 nm λ emission=520 nm. The Capillary was of bare silica 75 μ X 57 cm, with the detector at 50 cm. The capillary was conditioned before each run by washing with 0.2 M NaOH for 2 min., water for 2 min., and either 20 mM sodium phosphate buffer, pH 7.4 or sodium tetraborate, pH 9.3, 2 min. Samples were introduced by pressure injection for 2-5 seconds, and the separation was performed at 18 kV, 75 μA. Peak integration was performed with the Beckman PACE-Station software (version 1).

Data set [2] has as its system CC(=O)N[C@H]1[C@H](O[C@H]2[C@@H](O)[C@@H](CO)O[C@@H](O[C@@H]([C@H](O)[C@@H](O)CNc3cc(S(=O)(=O)O)c4ccc5c(S(=O)(=O)O)cc(S(=O)(=O)O)c6ccc3c4c65)[C@H](O)CO)[C@@H]2O)O[C@H](CO)[C@@H](O)[C@@H]1O[C@@H]1O[C@H](CO)[C@H](O)[C@H](O)[C@H]1O. The conditions noted are these: other: apparent; APTS-labelled acceptor, CMP-Neu5Ac 200 μM, room temperature. As to the method:
as §1, §2

For data set [3], the system named is O=S(=O)(O)c1cc(NC[C@H](O)[C@@H](O)[C@H](O[C@@H]2O[C@H](CO)[C@H](O)[C@H](O)[C@H]2O)[C@H](O)CO)c2ccc3c(S(=O)(=O)O)cc(S(=O)(=O)O)c4ccc1c2c34. The conditions noted are these: other: apparent; APTS-labelled acceptor, CMP-Neu5Ac 200 μM, room temperature. The method, then:
as §1, §2

The test system of data set [4] is O=S(=O)(O)c1cc(NC[C@H](O)[C@@H](O)[C@H](O[C@@H]2O[C@H](CO)[C@H](O[C@H]3O[C@H](CO)[C@H](O)[C@H](O)[C@H]3O)[C@H](O)[C@H]2O)[C@H](O)CO)c2ccc3c(S(=O)(=O)O)cc(S(=O)(=O)O)c4ccc1c2c34. The conditions noted are these: other: apparent; APTS-labelled acceptor, CMP-Neu5Ac 200 μM, room temperature. The method, then: as §1, §2
Data set [5] has as its system CC(=O)N[C@H]1[C@H](O[C@@H]([C@H](O)[C@H](CNc2cc(S(=O)(=O)O)c3ccc4c(S(=O)(=O)O)cc(S(=O)(=O)O)c5ccc2c3c54)NC(C)=O)[C@H](O)CO)O[C@H](CO)[C@@H](O[C@@H]2O[C@H](CO)[C@H](O)[C@H](O)[C@H]2O)[C@@H]1O. The following applies: other: apparent; APTS-labelled acceptor, CMP-Neu5Ac 200 μM, room temperature. The method, then: as §1, §2
For data set [6], the system named is CC(=O)N[C@H]1[C@H]([C@H](O)[C@H](O)CO)O[C@](OP(=O)(O)OC[C@H]2O[C@@H](n3ccc(N)nc3=O)[C@H](O)[C@@H]2O)(C(=O)O)C[C@@H]1O. The conditions noted are these: other: acceptor LacNAc-APTS (0.8 mM) or lacto-N-neotetraose-APTS (0.2 mM). The method, then:
as §1, §2

What is called Km is the concentration of substrate that gives half-maximal velocity. In general, kcat refers to the number of substrate molecules converted per active site and unit of time at saturation. In the case of “purified recombinant α-2,3-sialyltransferase (Neisseria meningitidis MC58)”, the Michaelis constant (Km) is 42 µM in data set [1]; 113 µM in data set [2]; 168 µM in data set [3]; 139 µM in data set [4]; 67 µM in data set [5]; 20 µM in data set [6]. Moreover, the kcat turned out to be 0.0383 s⁻¹ in data set [2], 0.0633 s⁻¹ in data set [3], 0.013 s⁻¹ in data set [4] and 0.118 s⁻¹ in data set [5].
